Publication PMC8099429, “Membrane binding controls ordered self-assembly of animal septins” (eLife, 2021)

Columns and labels:
[1] = biological target: Drosophila melanogaster septin hexamers composed of His6-DSep1, DSep2, Pnut-StrepII (Drosophila melanogaster) (UniProt P42207); assay: atomic force microscopy on supported lipid bilayers; 12, 24 or 60 nM hexamers for 15 min at 19°C on silica-supported bilayers of 80% PC and 20% PS in polymerization buffer; mostly fixed with 1% glutaraldehyde, also unfixed
[2] = biological target: Drosophila melanogaster septin hexamers composed of His6-DSep1, mEGFP-DSep2, and Pnut-StrepII (Drosophila melanogaster) (UniProt P42207); assay: TIRF microscopy of bundles formed in solution; mEGFP-tagged hexamers diluted from 300 mM KCl into polymerization buffer with 50 mM KCl (20 mM imidazole pH 7.4), 100, 200, 500 nM; crowded onto a neutral PC bilayer with 0.1 wt-% methylcellulose; 20°C
[3] = biological target: the molecule itself; assay: scanning transmission electron microscopy (STEM) with mass-per-length mapping; septins preassembled for 1 hr at 20°C in solution at 50-500 nM, no membrane; TMV rods as mass standard

“Drosophila melanogaster septin hexamers composed of His6-DSep1, DSep2, Pnut-StrepII (from UniProt P42207 1-361; P54359 1-419; P40797 1-539) (complex)” was tested, and the threshold concentration for polymerization on negatively charged membranes [1] was under 12 nM.

“Drosophila melanogaster septin hexamers composed of His6-DSep1, mEGFP-DSep2, and Pnut-StrepII (from UniProt P42207 1-361; P54359 1-419; P40797 1-539) (complex)” was tested, and the threshold concentration for polymerization in solution [2] was 200 nM.

B1: Budding yeast septin octamers composed of Cdc3, Cdc10, Cdc11, and His6-Cdc12 (complex, budding yeast (S. cerevisiae))
chain 1: MSLKEEQVSIKQDPEQEERQHDQFNDVQIKQESQDHDGVDSQYTNGTQNDDSERFEAAESDVKVEPGLGMGITSSQSEKGQVLPDQPEIKFIRRQINGYVGFANLPKQWHRRSIKNGFSFNLLCVGPDGIGKTTLMKTLFNNDDIEANLVKDYEEELANDQEEEEGQGEGHENQSQEQRHKVKIKSYESVIEENGVKLNLNVIDTEGFGDFLNNDQKSWDPIIKEIDSRFDQYLDAENKINRHSINDKRIHACLYFIEPTGHYLKPLDLKFMQSVYEKCNLIPVIAKSDILTDEEILSFKKTIMNQLIQSNIELFKPPIYSNDDAENSHLSERLFSSLPYAVIGSNDIVENYSGNQVRGRSYPWGVIEVDNDNHSDFNLLKNLLIKQFMEELKERTSKILYENYRSSKLAKLGIKQDNSVFKEFDPISKQQEEKTLHEAKLAKLEIEMKTVFQQKVSEKEKKLQKSETELFARHKEMKEKLTKQLKALEDKKKQLELSINSASPNVNHSPVPTKKKGFLR
chain 2: MDPLSSVQPASYVGFDTITNQIEHRLLKKGFQFNIMVVGQSGLGKSTLINTLFASHLIDSATGDDISALPVTKTTEMKISTHTLVEDRVRLNINVIDTPGFGDFIDNSKAWEPIVKYIKEQHSQYLRKELTAQRERFITDTRVHAILYFLQPNGKELSRLDVEALKRLTEIANVIPVIGKSDTLTLDERTEFRELIQNEFEKYNFKIYPYDSEELTDEELELNRSVRSIIPFAVVGSENEIEINGETFRGRKTRWSAINVEDINQCDFVYLREFLIRTHLQDLIETTSYIHYEGFRARQLIALKENANSRSSAHMSSNAIQR
chain 3: MSGIIDASSALRKRKHLKRGITFTVMIVGQSGSGRSTFINTLCGQQVVDTSTTILLPTDTSTEIDLQLREETVELEDDEGVKIQLNIIDTPGFGDSLDNSPSFEIISDYIRHQYDEILLEESRVRRNPRFKDGRVHCCLYLINPTGHGLKEIDVEFIRQLGSLVNIIPVISKSDSLTRDELKLNKKLIMEDIDRWNLPIYNFPFDEDEISDEDYETNMYLRTLLPFAIIGSNEVYEMGGDVGTIRGRKYPWGILDVEDSSISDFVILRNALLISHLHDLKNYTHEILYERYRTEALSGESVAAESIRPNLTKLNGSSSSSTTTRRNTNPFKQSNNINNDVLNPASDMHGQSTGENNETYMTREEQIRLEEERLKAFEERVQQELLLKRQELLQREKELREIEARLEKEAKIKQEE
chain 4: MSAATATAAPVPPPVGISNLPNQRYKIVNEEGGTFTVMLCGESGLGKTTFINTLFQTVLKRADGQQHRQEPIRKTVEIDITRALLEEKHFELRVNVIDTPGFGDNVNNNKAWQPLVDFIDDQHDSYMRQEQQPYRTKKFDLRVHAVLYFIRPTGHGLKPIDIETMKRLSTRANLIPVIAKADTLTAQELQQFKSRIRQVIEAQEIRIFTPPLDADSKEDAKSGSNPDSAAVEHARQLIEAMPFAIVGSEKKFDNGQGTQVVARKYPWGLVEIENDSHCDFRKLRALLLRTYLLDLISTTQEMHYETYRRLRLEGHENTGEGNEDFTLPAIAPARKLSHNPRYKEEENALKKYFTDQVKAEEQRFRQWEQNIVNERIRLNGDLEEIQGKVKKLEEQVKSLQVKKSHLK
notes: Cdc3, budding yeast septin; Cdc10, budding yeast septin; Cdc11, budding yeast septin; Cdc12, budding yeast septin; Two copies of each chain follow from the word octamer with four named subunits; also called yeast septins; budding yeast septins; source: purified as described (Bertin et al., 2008); copies: 2 + 2 + 2 + 2
B1: binds [3].
